± gives the uncertainty stated by the source.
Test: protein stability index of a GFP-peptide fusion (yeast GPS) (PSI 1-4); higher = more stable; sorted into four equal gates, so the index is relative within each strain
Method in brief: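 Mid-log yeast cultures in leucine-free medium, carrying a pooled plasmid library, were sorted into four equal gates by their GFP/Cherry fluorescence ratio. Each plasmid expressed Cherry along with GFP fused upstream of a tiled 17-residue yeast protein peptide. Plasmids recovered from each gate were PCR-amplified and Illumina-sequenced, with reads assigned to strains by barcodes. The protein stability index was obtained by summing each gate's read frequency weighted by its gate number.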

Sequence | protein stability index (doa10∆) | protein stability index (pdr5∆) | protein stability index (san1∆) | protein stability index (ubr1∆)
IPDFRSSEGFYSKIKHL [SIR2] | 2.33 ± 0.13 | 2.21 ± 0.075 | 2.17 ± 0.15 | 2.45 ± 0.079
GIGSLTDLMSIVQELLD [RPC34] | 3.49 ± 0.17 | 2.91 ± 0.16 | 3.23 ± 0.13 | 3.17 ± 0.13
HPGYDCWLSNIDIQTQD [RRI1] | 2.72 ± 0.099 | 3.14 ± 0.091 | 3.08 ± 0.062 | 3.16 ± 0.075
EKKNDENSTSNSKPEKS [YLR335W/NUP2] | 3.24 ± 0.086 | 3.21 ± 0.1 | 3.28 ± 0.054 | 3.3 ± 0.056
NVRSVIRSSRSRGIVIG [RPP1] | 3 ± 0.076 | 3.1 ± 0.078 | 3.15 ± 0.16 | 3.2 ± 0.072
MPQSFTSIARIGDYILK [QCR7] | 3.35 ± 0.2 | 3.33 ± 0.12 | 3.04 ± 0.15 | 3.1 ± 0.062
VGFWKDDGDDEDLLECL [MTR3] | 2.67 ± 0.15 | 3.42 ± 0.19 | 3.5 ± 0.22 | 
NWAKFTATASLGVIHKG [RPN2] | 1.81 ± 0.06 | 1.81 ± 0.053 | 1.91 ± 0.069 | 2 ± 0.061
VEVIKQLSLDASKTNLR [GAL11] | 2.51 ± 0.063 | 2.62 ± 0.073 | 3.24 ± 0.077 | 2.71 ± 0.049
HEFKLIVGKKIQEFLVV [GRR1] | 2.73 ± 0.046 | 2.09 ± 0.062 | 2.38 ± 0.076 | 2.4 ± 0.059
RNISFSDNNSRIMSRNF [SWI1] | 2.93 ± 0.047 | 2.85 ± 0.057 | 2.9 ± 0.068 | 3.16 ± 0.035
EKPQFKDGETTDANGKT [RPO26] | 3.36 ± 0.076 | 3.3 ± 0.047 | 3.36 ± 0.059 | 3.28 ± 0.05
GNIFSNIGTPSFNMAQI [SNF5] | 2.58 ± 0.099 | 2.66 ± 0.093 | 3.05 ± 0.069 | 2.64 ± 0.054
VLQPLLPRELPKLLDAL [SNU114] | 2.15 ± 0.072 | 2.2 ± 0.11 | 2.73 ± 0.11 | 2.6 ± 0.096
TPKVVRSQDQENPAFLP [SEC65] | 2.66 ± 0.074 | 2.57 ± 0.067 | 2.16 ± 0.063 | 2.65 ± 0.055
QEKNFQTGIFVYQNNIT [RPB5] | 2.49 ± 0.064 | 1.52 ± 0.064 | 2.88 ± 0.09 | 2.38 ± 0.082
AEQPLPVSPLDIYSDEA [RPS2] | 2.79 ± 0.07 | 2.97 ± 0.064 | 2.9 ± 0.038 | 2.92 ± 0.052
DLSADKPTSPFIDSICK [SRB8] | 2.12 ± 0.034 | 1.88 ± 0.039 | 1.76 ± 0.048 | 1.93 ± 0.032
MANDLVQARDNSQVFGV [RPS14B] | 2.39 ± 0.076 | 2.36 ± 0.061 | 2.81 ± 0.049 | 2.97 ± 0.063
TNKISPKDFSPNFTGID [SSN2] | 2.76 ± 0.13 | 1.84 ± 0.11 | 2.9 ± 0.12 | 2.91 ± 0.057
LGGEINDNEDDDEEYDY [BRR2] | 3.5 ± 0.17 | 3.34 ± 0.081 | 3.28 ± 0.065 | 3.43 ± 0.1
DKLSVSEISDGKLKRCS [SIN4] | 3.27 ± 0.15 | 3.38 ± 0.13 | 3.15 ± 0.1 | 3.6 ± 0.11
LLEKYNTNELKEVSSFL [MTR3] | 3.05 ± 0.054 | 2.76 ± 0.054 | 3.23 ± 0.046 | 3.1 ± 0.053
CEISGSIEQLRNVVEDI [BRN1] | 3.25 ± 0.18 | 3.33 ± 0.2 | 3.09 ± 0.19 | 
QRRTNNSGVGSAKGPEI [MED6] |  |  | 3.23 ± 0.19 | 
AIGYEPLSLTHRDKNKM [DIS3] | 2.83 ± 0.058 | 2.9 ± 0.061 | 2.88 ± 0.063 | 2.93 ± 0.042
EVFQLRIFVKEILEKCA [GAL11] | 2.29 ± 0.12 | 2.11 ± 0.12 | 2.19 ± 0.077 | 2.12 ± 0.19
